T1: E2f5 (zebrafish, UniProt A5WUE8 1-363)
T1 sequence: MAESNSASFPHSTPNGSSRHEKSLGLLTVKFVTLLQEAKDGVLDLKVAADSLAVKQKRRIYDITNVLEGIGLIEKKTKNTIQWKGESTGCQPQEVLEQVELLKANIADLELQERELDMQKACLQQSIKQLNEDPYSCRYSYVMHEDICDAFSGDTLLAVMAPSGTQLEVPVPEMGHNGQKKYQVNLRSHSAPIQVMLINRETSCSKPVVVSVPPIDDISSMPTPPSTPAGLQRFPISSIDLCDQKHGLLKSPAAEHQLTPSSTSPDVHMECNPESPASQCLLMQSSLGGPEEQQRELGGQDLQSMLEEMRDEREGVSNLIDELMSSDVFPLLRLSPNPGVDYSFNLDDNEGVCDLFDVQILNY


Target: T1, E2f5
Assay: EMSA; 10 mM Tris-HCl pH 8.0, 50 mM NaCl, 1 mM MgCl2, 0.5 mM EDTA, 0.5 mM DTT, 4% glycerol; 3 ug protein, 1 ul annealed oligo (25 uM stock); 40 min room temperature; 6.5% native PAGE
Conditions: protein: recombinant; tags: His (pET30A, Ni-NTA purified); label: 5'-FAM; annealed with complementary oligonucleotide

Binder | binding result
dmc1 E2F site wild-type probe (dsDNA) DNA 1: TGTCAACATACGATTGTGGCGCGAAATTTCTTTCAGC DNA 2: GCTGAAAGAAATTTCGCGCCACAATCGTATGTTGACA | binds
dmc1 E2F site mutant probe (dsDNA) DNA 1: TGTCAACATACGATTGTAAATTTAAATTTCTTTCAGC DNA 2: GCTGAAAGAAATTTAAATTTACAATCGTATGTTGACA | no binding

Source: paper PMC7112233, “E2f5 is a versatile transcriptional activator required for spermatogenesis and multiciliated cell differentiation in zebrafish”
